Source: PMC12315504 (The FASEB Journal, 2021)
Read-outs that look alike come from different tables or passages of the source.

Key:
non-reducing SDS-PAGE [1] = biological target: the molecule itself; assay: non-reducing SDS-PAGE
non-reducing SDS-PAGE [2] = biological target: the molecule itself; assay: non-reducing SDS-PAGE; remark: listed apart in the source

| Protein | stoichiometry N (non-reducing SDS-PAGE [1]) | stoichiometry N (non-reducing SDS-PAGE [2]) |
| --- | --- | --- |
| Fgf15 (wild-type, mouse), in Hek293T conditioned medium (ligand, UniProt O35622 26-218, looked up) RPLAQQSQSVSDEDPLFLYGWGKITRLQYLYSAGPYVSNCFLRIRSDGSVDCEEDQNERNLLEFRAVALKTIAIKDVSSVRYLCMSADGKIYGLIRYSEEDCTFREEMDCLGYNQYRSMKHHLHIIFIQAKPREQLQDQKPSNFIPVFHRSFFETGDQLRSKMFSLPLESDSMDPFRMVEDVDHLVKSPSFQK | 2 | – |
| Fgf15 (wild-type, mouse), in serum of mice after hydrodynamic delivery of the plasmid (ligand, UniProt O35622 26-218, looked up) RPLAQQSQSVSDEDPLFLYGWGKITRLQYLYSAGPYVSNCFLRIRSDGSVDCEEDQNERNLLEFRAVALKTIAIKDVSSVRYLCMSADGKIYGLIRYSEEDCTFREEMDCLGYNQYRSMKHHLHIIFIQAKPREQLQDQKPSNFIPVFHRSFFETGDQLRSKMFSLPLESDSMDPFRMVEDVDHLVKSPSFQK | – | 2 |
